What was measured:
[1] = biological target: T1, recombinant human FH fragment CCP 19-20 (human, UniProt P08603 1107-1231); assay: competition ELISA: mAb captured on RM-19 coated plate, FH-bt mixed with unlabelled CCP 19-20
T1 construct: domain: CCP 19-20
T1 sequence (looked up): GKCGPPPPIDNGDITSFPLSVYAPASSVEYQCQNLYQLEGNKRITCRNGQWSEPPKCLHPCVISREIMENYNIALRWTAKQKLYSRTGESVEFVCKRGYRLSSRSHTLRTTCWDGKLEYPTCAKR
Method: The location of the epitope of anti-FHR-1 mAbs was determined using recombinant human FH fragments composed of multiple CCP domains (15-18, 15-19, 18-20 or 19-20). In short, anti-FHR-1 mAbs were captured on a RM-19 coated microtiterplate to assure optimal binding conformation. Next, biotinylated FH, mixed with a 100-fold higher concentration of the indicated unlabeled recombinant FH-fragments, was incubated on the plate for 1 hour. Binding of biotinylated FH was determined by incubation with 0.01% (v/v) streptavidin conjugated with poly-HRP, in HPE for 30 min. The ELISA was further developed as described above. To determine whether the anti-FHR-1 mAbs competed with anti-FH.07 for the binding of FH, a similar set-up was used. In short, mAbs were directly coated to the plate and binding of biotinylated FH (FH-bt) in the absence or presence of a 10-fold higher concentration of indicated mAbs was assessed by ELISA as described above.

[2] = biological target: T2, human factor H, full length (human, UniProt P08603 19-1231); assay: SPR (Biacore T200), mAb captured on ProtA or ProtG chip, full length FH flowed over, 1:1 model
T2 construct: mature; In the serum assays (C3b deposition, hemolysis) the FH is that of normal human serum; also called FH; full length FH
Method: (§1) Surface plasmon resonance (SPR) experiments were performed using a BiaCore T200 (GE Healthcare) and CM5 sensor chips (GE Healthcare) in accordance with the manufacturer's instructions. In short, to determine its affinity, anti-FH.07, anti-FHR-1 3B4 or anti-FHR-1 8E4 were captured onto a ProtA or ProtG coupled chip and either full length FH or a fragment of FH comprising domain 18-20 was flown over the captured moAB at decreasing concentrations.

[3] = biological target: T3, recombinant human FH fragment CCP 18-20 (human, UniProt P08603 1046-1231); assay: SPR, mAb captured, FH CCP18-20 flowed over (fuller figure of the value rounded to 0.03 × 10^-9 in Table 2)
T3 construct: domain: CCP 18-20; also called fragment of FH comprised of domain 18-20
T3 sequence (looked up): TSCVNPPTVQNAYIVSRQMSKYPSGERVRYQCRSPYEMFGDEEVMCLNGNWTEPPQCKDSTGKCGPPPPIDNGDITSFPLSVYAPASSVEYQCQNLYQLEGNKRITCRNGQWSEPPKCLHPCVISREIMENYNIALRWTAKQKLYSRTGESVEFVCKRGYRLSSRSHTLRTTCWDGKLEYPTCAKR
Method: as §1

[4] = biological target: T3, recombinant human FH fragment CCP 18-20; assay: SPR (Biacore T200), mAb captured on ProtA or ProtG chip, FH CCP18-20 flowed over, 1:1 model
Method: as §1

[5] = biological target: T2, human factor H, full length; assay: cell-based or functional assay

B1: anti-FHR-1.8E4 (antibody, V domains shown)
VH: QVQLKQSGPGLVQPSQSLSITCTVSDFSLTNSGVHWVRQSPGKGLEWLGVIWSGGTTEYNAAFMSRLTITKDNSKSQVFFKMNSLLVDDTGIYYCARNFGNYAVDYWGQGTSVTVSS
VL: QIVLSQSPAILSASPGEKVTMTCRASSSVRYMHWYQQKAGSSPTAWIFATSNLASGVPPRFSGSGSGTSYSLTISRVEAEDAATYYCQQWGTKPPTFGAGTKLELK
notes: Mouse monoclonal from a hybridoma, raised against recombinant human FHR-1; also called aFHR-1 8E4
[1]
  binding result: no binding
[2]
  Kd: 10.4 nM
  koff: 9.39e-05 s⁻¹
  kon: 9000 M⁻¹ s⁻¹
[3]
  Kd: 0.0313 nM
[4]
  Kd: 0.03 nM
  koff: 4.96e-05 s⁻¹
  kon: 1.58e+06 M⁻¹ s⁻¹
[5]
  IC50 (nM), Hemolytic assay: 128 nM
  IC50 (nM), LPS C3b dep. assay: 26.3 nM
